This is an account of results in patent US6475791B1, “Uses for DNA structure-specific recognition protein” (Massachusetts Institute of Technology, priority 1988, dated 2002).

The test system of data set [1] is cellular SSRP in human (HeLa) and hamster (V79) cell extracts. Conditions: cited from earlier work.
Data set [2] concerns HMG1. The experiment in a line: inhibition. Conditions: cisplatin 1,2-d(GpG) intrastrand crosslink; inhibition of excision repair by HeLa CFE at 1 uM HMG1 (20% at 0.5 uM); 8 mM MgCl2, 2 mM ATP, 30 C.
Data set [3] has as its system h-mtTFA (mitochondrial transcription factor A) (Homo sapiens). The experiment in a line: inhibition.
The test system of data set [4] is cisplatin 1,2-d(G^G) intrastrand adduct (1,2-GG), excision by human excinuclease. The experiment in a line: Exinuclease excision repair of the 1,2-intrastrand cisplatin lesion by HeLa cell-free extract, with or without HMG-box protein. It is filed as biochemical. The following applies: for percent inhibition of repair, 1,2-GG adduct: 30 min, 30° C, average of two experiments. As for the experimental part:
(§1) Exinuclease substrates with defined cisplatin lesions Nucleic acid fragments (oligomers) bearing a 1,2-d(G^G) or a 1,3-d(GTG) cisplatin crosslink at a defined site were prepared essentially according to the method of Shi et al. (1987), 15 Nucleic Acids Res. 6843, by ligation of a mixture of a cisplatin-lesioned dodecamer with seven other oligonucleotides to produce 156 bp fragments. Prior to ligation, lesioned dodecamers were labeled with [γ-^32P]ATP such that the detectable radiolabel would be located at the 4th phosphodiester bond 5′ to the 1,3-intrastrand d(GTG) lesion, or the 5th phosphodiester bond 5′ to the 1,2-intrastrand d(G^G) lesion. Thus, the radiolabel would be included in the 27-29 nucleotide fragment spanning the cisplatin lesion that would be released by exinuclease. Full length (156 bp) exinuclease substrate oligomers were isolated on a 5% polyacrylamide/8 M urea denaturing gel and reannealed.
(§2) Exinuclease reaction. The excision reaction buffer contained 40 mM Hepes, pH 7.9, 80 mM KCl, 8 mM MgCl2, 2 mM ATP, 20 μM of each dNTP, 1 mM dithiothreitol, 0.3 mM EDTA, 6.8% (v/v) glycerol, and 200 μg/ml bovine serum albumin. The reaction mixture (50 μl) contained 100 μg of CFE (in cases of complementation, 50 μg of each of the XP CFE) and 30 pM DNA substrate (specific activity 7000 Ci/mmol), plus 250 ng pBR322 as carrier DNA. The excision reaction was carried out varying lengths of time at 30° C. Following proteinase K digestion, DNA exinuclease reaction products were extracted by phenol/chloroform and precipitated with ethanol. Equal amounts of DNA were loaded onto each lane.
(§3) The radiolabeled substrates bearing specific 1,2- and 1,3-intrastrand cisplatin lesions and the HeLa cell-free extract described above in Example 1 were used.
(§4) Gel Mobility Shift Assay. The 25 μl reaction mixtures contained 30 pM substrate and 0, 1, 2, 4 or 8 μM HMG1. Mixtures were incubated at 30° C. for 10 min. Samples (1.5 μl) of the mixtures were withdrawn and adjusted to 15% (v/v) glycerol, and electrophoretically resolved on a 5% native polyacrylamide gel. Results were visualized by autoradiography.
(§5) Exinuclease reaction in the presence of HMG1. Following withdrawal of the above samples for gel mobility shift analysis, 50 μg of HeLa CFE was added to each of the reaction mixtures and incubation was continued for 30 min at 30° C. as described in Example 1. Reactions were stopped and DNA reaction products were retrieved and analyzed as described in Example 2.
(§6) An exinuclease inhibition study was carried out generally as described in Example 3, using 0, 0.5 or 1.0 μM concentrations of HMG1 or h-mtTFA in parallel incubations.

Data set [5] deals with cisplatin 1,3-d(GTG) intrastrand adduct (1,3-GTG), excision by human excinuclease. The experiment in a line: Exinuclease excision repair of the 1,3-intrastrand cisplatin lesion by HeLa cell-free extract, with or without HMG-box protein. Format: biochemical. Conditions: for percent inhibition of repair, 1,3-GTG adduct: 30 min, 30° C, average of two experiments. The procedure:
as §1, §2, §3, §4, §5, §6

Data set [6] has as its system yeast ixr-1 null mutant strain. The following applies: Brown et al. (1993); cited from earlier work.
[7] abbreviates: 90 min, HeLa CFE, no inhibitor, over 20 independent assays.

As to `NCCN.[Cl][Pt][Cl]` [cis-dichloro(ethylenediamine)platinum(II)], the “cellular SSRP binding to double stranded probe DNA bearing lesions produced by the compound” value (“cellular SSRP binding” below) in data set [1] is recorded as “bound”.

Consider `NC1CCCCC1N.[Cl][Pt][Cl]` (stereo not drawn) [cis-dichloro(1,2-diaminocyclohexane)platinum(II)], for which the “cellular SSRP binding” value in data set [1] is “bound”.

With “156 bp duplex with site-specific cisplatin 1,2-d(GpG) intrastrand crosslink”, the activity in data set [2] stood at 40 % inhibition; in data set [3] (cisplatin 1,2-d(GpG) intrastrand crosslink, inhibition of excision repair at 0.5 uM h-mtTFA (100% at 1 uM)), 95 % inhibition.

Regarding `N.N.[Cl][Pt+2][Cl]` [transplatin], the “cellular SSRP binding” value in data set [1] is listed as “did not bind”.

Consider `N.N.[Cl][Pt][Cl]` [cisplatin, cis-diamminedichloroplatinum(II), reference compound], for which the “range of excision of the 1,2-d(G^G) crosslink” value in data set [4] (setting [7]) was 1-8%. Moreover, the “range of excision of the 1,3-d(GTG) crosslink” value in data set [5] (setting [7]) is on record as 2.3-8%. The “cellular SSRP binding” value in data set [1] was “bound”. Further, the “sensitivity of ixr-1 null yeast to cisplatin killing relative to parent (wildtype Ixr-1) strain” value in data set [6] was “two-fold less sensitive”.

Regarding “156 bp duplex with site-specific cisplatin 1,3-d(GTG) intrastrand crosslink”, the activity in data set [3] (cisplatin 1,3-d(GpTpG) intrastrand crosslink, inhibition of excision repair at 1 uM h-mtTFA (40% at 0.5 uM)) amounted to 75 % inhibition.

For the molecule `[Cl-].[NH-]CC[N-]CC[NH-].[Pt+4]` [chloro(diethylenetriamine)platinum(II)], in data set [1], the “cellular SSRP binding” value was “did not bind”.

B1: HMG1: Recombinant HMG1 protein purified from an E. coli overproducing strain; HMG domain protein (protein, UniProt P09429 1-215, looked up)
High mobility group protein B1: MGKGDPKKPRGKMSSYAFFVQTCREEHKKKHPDASVNFSEFSKKCSERWKTMSAKEKGKFEDMAKADKARYEREMKTYIPPKGETKKKFKDPNAPKRPPSAFFLFCSEYRPKIKGEHPGLSIGDVAKKLGEMWNNTAADDKQPYEKKAAKLKEKYEKDIAAYRAKGKPDAAKKGVVKAEKSKKKKEEEEDEEDEEDEEEEEDEEDEDEEEDDDDE
As to B1, the “percent inhibition of repair, 1,2-GG adduct” value in data set [4] (1 μM protein, HeLa CFE) stood at 40%. Also, in data set [4] (escalating concentrations of purified HMG1 (0-8 μM), FIG. 5), the “effect on excision of the cisplatin 1,2-intrastrand crosslink” value is “monotonically inhibited”. Besides, the “percent inhibition of repair, 1,3-GTG adduct” value is given as 0% in data set [5] (0.5 μM protein, HeLa CFE) and 0% in data set [5] (1 μM protein, HeLa CFE). The “effect on excision of the 1,3-crosslink” value in data set [5] (HMG1 concentrations up to about 4 μM, inhibited at higher concentrations, FIG. 5) is reported as “modestly stimulated”.

B2: h-mtTFA: human mitochondrial transcription factor A, an HMG domain protein (protein, UniProt Q00059 43-246, looked up)
Transcription factor A, …: SSVLASCPKKPVSSYLRFSKEQLPIFKAQNPDAKTTELIRRIAQRWRELPDSKKKIYQDAYRAEWQVYKEEISRFKEQLTPSQIMSLEKEIMDKHLKRKAMTKKKELTLLGKPKRPRSAYNVYVAERFQEAKGDSPQEKLKTVKENWKNLSDSEKELYIQHAKEDETRYHNEMKSWEEQMIEVGRKDLLRRTIKKQRKYGAEEC
In the case of B2, the “percent inhibition of repair, 1,2-GG adduct” value in data set [4] (0.5 μM protein, HeLa CFE) was 95%; in data set [4] (1 μM protein, HeLa CFE), 100%. In addition, the “percent inhibition of repair, 1,3-GTG adduct” value in data set [5] (0.5 μM protein, HeLa CFE) came out at 40%; in data set [5] (1 μM protein, HeLa CFE), 75%.
